Paper PMC7135905 (Biochemical Journal, 2020)
Substitutions are numbered along the chain they refer to. In names and notes the source's numbering stands. Like-named read-outs stand apart in the source and are kept apart here.

B1: CtRocCOR (RocCOR construct of the Roco protein from Chlorobium tepidum, a.a. 412-946) (domain or fragment)
chain: DNPLESPPPEIVKQGKEAVRQYFQSIEEARSKGEALVHLQEIKVHLIGDGMAGKTSLLKQLIGETFDPKESQTHGLNVVTKQAPNIKGLENDDELKECLFHFWDFGGQEIMHASHQFFMTRSSVYMLLLDSRTDSNKHYWLRHIEKYGGKSPVIVVMNKIDENPSYNIEQKKINERFPAIENRFHRISCKNGDGVESIAKSLKSAVLHPDSIYGTPLAPSWIKVKEKLVEATTAQRYLNRTEVEKICNDSGITDPGERKTLLGYLNNLGIVLYFEALDLSEIYVLDPHWVTIGVYRIINSSKTKNGHLNTSALGYILNEEQIRCDEYDPAKNNKFTYTLLEQRYLLDIMKQFELCYDEGKGLFIIPSNLPTQIDNEPEITEGEPLRFIMKYDYLPSTIIPRLMIAMQHQILDRMQWRYGMVLKSQDHEGALAKVVAETKDSTITIAIQGEPRCKREYLSIIWYEIKKINANFTNLDVKEFIPLPGHPDELVEYKELLGLEKMGRDEYVSGKLEKVFSVSKMLDSVISKEERNKER
B2: CtRocCOR L487A mutant (domain or fragment)
chain: B1 chain with L76A

Columns and labels:
Test in all cases: native MS
[1] = target: the molecule itself
[2] = target: the molecule itself; remark: listed apart in the source
[3] = target: the molecule itself; remark: listed apart in the source
[4] = target: the molecule itself; remark: listed apart in the source
[5] = target: the molecule itself; remark: listed apart in the source
[6] = target: the molecule itself; remark: listed apart in the source

Protein | percent dimer (dimer/monomer ratio) [1] [%] | stoichiometry N [1] | percent dimer (dimer/monomer ratio) [2] [%] | percent dimer (dimer/monomer ratio) [3] [%] | percent dimer (dimer/monomer ratio) [4] [%] | percent dimer (dimer/monomer ratio) [5] [%] | percent dimer (dimer/monomer ratio) [6] [%]
B1 | ~97 | 2 | ~38 | ~90 | ~87 | ~20 | ~26
B2 |  |  | ~85 | ~100 |  | ~11 | ~96
